Experimental data: US20130158238A1 (THERACLONE SCIENCES, published 2013)
Values joined by “and” are separate entries in the source; they are usually repeats but may differ in a detail not shown here. Equal entries are not always repeated.

B1: 8i10 (antibody, V domains shown)
VH: QVQLQESGPGLVKPSETLSLTCTVSGSSISNYYWSWIRQSPGKGLEWIGFIYYGGNTKYNPSLKSRVTISQDTSKSQVSLTMSSVTAAESAVYFCARASCSGGYCILDYWGQGTLVTVS
VL: DIQMTQSPSSLSASVGDRVTITCRASQNIYKYLNWYQQRPGKAPKGLISAASGLQSGVPSRFSGSGSGTDFTLTITSLQPEDFATYYCQQSYSPPLTFGGGTRVEIK
B2: 23K12 (antibody, V domains shown)
VH: EVQLVESGGGLVQPGGSLRISCAASGFTVSSNYMSWVRQAPGKGLEWVSVIYSGGSTYYADSVKGRFSFSRDNSKNTVFLQMNSLRAEDTAVYYCARCLSRMRGYGLDVWGQGTTVTVS
VL: DIQMTQSPSSLSASVGDRVTITCRTSQSISSYLNWYQQKPGKAPKLLIYAASSLQSGVPSRFSGSGSGTDFTLTISGLQPEDFATYYCQQSYSMPAFGQGTKLEIK

Key:
[1] = biological target: M2 protein of A/Hong Kong/483/1997, on cells (Influenza A virus A/Hong Kong/483/97 (H5N1)); experiment: FACS, supernatant on CHO cells stably expressing M2 of A/Hong Kong/483/97
[2] = biological target: M2 protein on influenza A/Puerto Rico/8/34 (H1N1) virus particles (Influenza A virus A/Puerto Rico/8/34 …, UniProt P06821 1-97)
NM17 = experiment: ELISA, peptide 2 µg/mL, mAb 5 µg/mL
[3] = biological target: M2e peptide … (23mer synthetic peptide of M2 derived from A/Fort Worth/1/50) (Influenza A virus A/Fort Worth/1/50 (H1N1)); experiment: ELISA, peptide 2 µg/mL, mAb 5 µg/mL
M12 = experiment: ELISA, peptide 2 µg/mL, mAb 5 µg/mL
NM12 = experiment: ELISA, peptide 2 µg/mL, mAb 5 µg/mL
CM13 = experiment: ELISA, peptide 2 µg/mL, mAb 5 µg/mL
NM7 = experiment: ELISA, peptide 2 µg/mL, mAb 5 µg/mL
CM12 = experiment: ELISA, peptide 2 µg/mL, mAb 5 µg/mL
NM8 = experiment: ELISA, peptide 2 µg/mL, mAb 5 µg/mL
CM17 = experiment: ELISA, peptide 2 µg/mL, mAb 5 µg/mL
NM14 = experiment: ELISA, peptide 2 µg/mL, mAb 5 µg/mL
CM16 = experiment: ELISA, peptide 2 µg/mL, mAb 5 µg/mL
M15 = experiment: ELISA, peptide 2 µg/mL, mAb 5 µg/mL
NM13 = experiment: ELISA, peptide 2 µg/mL, mAb 5 µg/mL
CM14 = experiment: ELISA, peptide 2 µg/mL, mAb 5 µg/mL
M16 = experiment: ELISA, peptide 2 µg/mL, mAb 5 µg/mL
NM15 = experiment: ELISA, peptide 2 µg/mL, mAb 5 µg/mL
CM15 = experiment: ELISA, peptide 2 µg/mL, mAb 5 µg/mL

Binder	FACS M2-HK MFI [1]	EC50 (read off the curve) [2] [µg/mL]	binding activity (ELISA A450) (NM17)	binding activity (ELISA A450) [3]	binding activity (ELISA A450) (M12)	binding activity (ELISA A450) (NM12)	binding activity (ELISA A450) (CM13)	binding activity (ELISA A450) (NM7)	binding activity (ELISA A450) (CM12)	binding activity (ELISA A450) (NM8)	binding activity (ELISA A450) (CM17)	binding activity (ELISA A450) (NM14)	binding activity (ELISA A450) (CM16)	binding activity (ELISA A450) (M15)	binding activity (ELISA A450) (NM13)	binding activity (ELISA A450) (CM14)	binding activity (ELISA A450) (M16)	binding activity (ELISA A450) (NM15)	binding activity (ELISA A450) (CM15)
B1	754 MFI and 1080 MFI	~0.04	0.26	0.11	0.09	0.1	0.14	0.1	0.14	0.1	0.11	0.11	0.13	0.09	0.11	0.14	0.09	0.12	0.12
B2	–	~0.06	–	–	0.2	0.24	0.34	0.2	0.39	0.2	0.34	0.24	0.35	–	0.25	0.36	–	–	0.34
